Values joined by “and” are separate entries in the source; they are usually repeats but may differ in a detail not shown here. Identical values can stand only once.
Columns and labels:
[1] = target: T1, human βI-tryptase monomer (Homo sapiens, UniProt Q15661); assay: SPR; Biacore T200; anti-tryptase IgG variant captured on a CM5 chip with anti-human IgG (Fc) antibody; threefold dilutions of human βI-tryptase monomer injected at 30 µL/min, 25 °C, 3-min association, 10-min dissociation; 1:1 binding model; representative single sensorgram sets; settings: both partners purified
T1 construct: mature wild-type human βI-tryptase, Uniprot Q15661, Ile31-Pro275 (Ile16-Pro246 chymotrypsinogen numbering); also called monomeric βI-tryptase; β1-tryptase; source: Trichoplusia ni cells (baculovirus), secreted, purified (Ni-NTA, S200 SEC)
T1 sequence (Q15661 31-275): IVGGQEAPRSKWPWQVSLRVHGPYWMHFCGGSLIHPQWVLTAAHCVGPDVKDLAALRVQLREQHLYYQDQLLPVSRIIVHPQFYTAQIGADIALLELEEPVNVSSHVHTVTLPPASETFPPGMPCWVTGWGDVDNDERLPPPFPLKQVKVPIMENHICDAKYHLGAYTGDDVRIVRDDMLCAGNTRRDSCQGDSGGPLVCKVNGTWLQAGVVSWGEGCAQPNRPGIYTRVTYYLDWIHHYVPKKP

[2] = target: T2, human βI-tryptase monomer (Homo sapiens, UniProt Q15661); assay: SPR; Biacore T200; antibody captured on a CM5 chip by immobilised mouse anti-human IgG (Fc); threefold dilutions of βI-tryptase monomer injected at 30 µL/min, 25 °C, 3-min association, 10-min dissociation; 1:1 Langmuir fit; n = 2; settings: both partners purified
T2 construct: mature wild-type human βI-tryptase, Uniprot Q15661, Ile31-Pro275 (Ile16-Pro246 in chymotrypsinogen numbering); The SPR methods say only 'human βI-tryptase monomer'; The methods describe the monomeric form as the zymogen, which still carries the N-terminal His6 tag and enterokinase site before Ile16; also called monomeric βI-tryptase; β-tryptase; source: Trichoplusia ni cells (baculovirus, …)
T2 sequence (Q15661 31-275): as above

[3] = target: T3, βI-tryptase tetramer mutant I99C (human, engineered disulfide bond in the large interface (C99)); assay: SEC; without heparin; tetrameric βI-tryptase (WT, Y75C or I99C) or zymogen monomer mixed with a twofold molar excess of Fab, 15 min at 25 °C; S200GL column in 10 mM MOPS pH 6.8, 2 M NaCl; fractions checked by SDS-PAGE; settings: both partners purified
T3 construct: mature human βI-tryptase, Ile31-Pro275 of Uniprot Q15661 (Ile16-Pro246 in chymotrypsinogen numbering); numbers count on: chymotrypsinogen numbering; Loaded as a tetramer; with E104.v2 Fab it runs as a complex of the disulfide-linked dimer; also called disulfide-locked large interface mutant; not shown: His6, N-terminal, cleaved

[4] = target: the molecule itself; assay: crystal structure; E104.v1 Fab with tetrameric βI-tryptase; crystals at 19 °C, 0.1 M Tris pH 8.5, 0.2 M CaCl2, 20% PEG 4000, 4% pentaerythritol ethoxylate; 3.0 Å

T3 sequence (chain, as listed by the source I99C I99C): as the sequence (Q15661 31-275) above, with I88C counted along it

Row | Binder | Kd [1] [nM] | Kd [2] | further results
1 | E104.v2 IgG1 hinge variant G1-TH (antibody, V domains shown) VH: EVQLVESGPGLVKPSETLSLTCTVSRFSLIGYAITWIRQPPGKGLEWIGGISSAATTFYSSWAKSRVTISRDTSKNQVSLKLSSVTAADTAVYYCARDPRGYGAALDRLDLWGQGTLVTVSS VL: DIQMTQSPSSLSASVGDRVTITCQSIKSVYNNRLGWYQQKPGKAPKLLIYETSILTSGVPSRFSGSGSGTDFTLTISSLQPEDFATYYCAGGFDRSGDTTFGQGTKVEIK | 0.56 | – | –
2 | humanized E104.v1 IgG1 (antibody, V domains shown) VH: EVQLVESGPGLVKPSETLSLTCTVSRFSLIGYAITWIRQPPGKGLEWIGGISSAATTFYSSWAKSRVTISVDTSKNQFSLKLSSVTAADTAVYYCARDPRGYGAALDRLDLWGQGTLVTVSS VL: DIQMTQSPSSLSASVGDRVTITCQSIKSVYNNRLGWYQQKPGKAPKLLIYETSILTSGVPSRFSGSGSGTDFTLTISSLQPEDFATYYCAGGFDRSGDTTFGQGTKVEIK | 0.543 | – | –
3 | E104.v2 IgG1 hinge variant G1-H (antibody, V domains shown, humanized E104.v2 VH: as the VH of Sm2 (E104.v1, PDB 6VVU heavy chain) with V71R and F78V (Kabat numbering); human IgG1 heavy chain constant region, the CH1 domain up to the upper hinge; human IgG1 heavy chain constant region after the upper hinge (core and lower hinge, CH2, CH3); IgG1 with shortened upper hinge; copies: 2 + 2) VH: EVQLVESGPGLVKPSETLSLTCTVSRFSLIGYAITWIRQPPGKGLEWIGGISSAATTFYSSWAKSRVTISRDTSKNQVSLKLSSVTAADTAVYYCARDPRGYGAALDRLDLWGQGTLVTVSS VL: DIQMTQSPSSLSASVGDRVTITCQSIKSVYNNRLGWYQQKPGKAPKLLIYETSILTSGVPSRFSGSGSGTDFTLTISSLQPEDFATYYCAGGFDRSGDTTFGQGTKVEIK | – | 0.68 nM and 0.494 nM | –
4 | humanized E104.v2 IgG1 (antibody, V domains shown, humanized E104.v2 VH: as the VH of Sm2 (E104.v1, PDB 6VVU heavy chain) with V71R and F78V (Kabat numbering); human IgG1 heavy chain constant region, the CH1 domain up to the upper hinge; upper hinge of human IgG1, wild type; human IgG1 heavy chain constant region after the upper hinge (core and lower hinge, CH2, CH3); v1 and v2 differ only in the heavy chain; IgG1; also called IgG1.v2; copies: 2 …) VH: EVQLVESGPGLVKPSETLSLTCTVSRFSLIGYAITWIRQPPGKGLEWIGGISSAATTFYSSWAKSRVTISRDTSKNQVSLKLSSVTAADTAVYYCARDPRGYGAALDRLDLWGQGTLVTVSS VL: DIQMTQSPSSLSASVGDRVTITCQSIKSVYNNRLGWYQQKPGKAPKLLIYETSILTSGVPSRFSGSGSGTDFTLTISSLQPEDFATYYCAGGFDRSGDTTFGQGTKVEIK | – | 0.6 nM | –
5 | E104.v2 IgG1 hinge variant G1-KTH (antibody, V domains shown, humanized E104.v2 VH: as the VH of Sm2 (E104.v1, PDB 6VVU heavy chain) with V71R and F78V (Kabat numbering); human IgG1 heavy chain constant region, the CH1 domain up to the upper hinge; human IgG1 heavy chain constant region after the upper hinge (core and lower hinge, CH2, CH3); IgG1 with shortened upper hinge; copies: 2 + 2) VH: EVQLVESGPGLVKPSETLSLTCTVSRFSLIGYAITWIRQPPGKGLEWIGGISSAATTFYSSWAKSRVTISRDTSKNQVSLKLSSVTAADTAVYYCARDPRGYGAALDRLDLWGQGTLVTVSS VL: DIQMTQSPSSLSASVGDRVTITCQSIKSVYNNRLGWYQQKPGKAPKLLIYETSILTSGVPSRFSGSGSGTDFTLTISSLQPEDFATYYCAGGFDRSGDTTFGQGTKVEIK | – | 0.522 nM and 0.401 nM | –
6 | E104.v2 IgG1 hinge variant G1.G5 (antibody, V domains shown) VH: EVQLVESGPGLVKPSETLSLTCTVSRFSLIGYAITWIRQPPGKGLEWIGGISSAATTFYSSWAKSRVTISRDTSKNQVSLKLSSVTAADTAVYYCARDPRGYGAALDRLDLWGQGTLVTVSS VL: DIQMTQSPSSLSASVGDRVTITCQSIKSVYNNRLGWYQQKPGKAPKLLIYETSILTSGVPSRFSGSGSGTDFTLTISSLQPEDFATYYCAGGFDRSGDTTFGQGTKVEIK | 0.643 | – | –
7 | E104.v2 IgG1 hinge variant G1 + (GGS)3 (antibody, V domains shown, humanized E104.v2 VH: as the VH of Sm2 (E104.v1, PDB 6VVU heavy chain) with V71R and F78V (Kabat numbering); human IgG1 heavy chain constant region, the CH1 domain up to the upper hinge; human IgG1 heavy chain constant region after the upper hinge (core and lower hinge, CH2, CH3); IgG1 with extended upper hinge; copies: 2 + 2) VH: EVQLVESGPGLVKPSETLSLTCTVSRFSLIGYAITWIRQPPGKGLEWIGGISSAATTFYSSWAKSRVTISRDTSKNQVSLKLSSVTAADTAVYYCARDPRGYGAALDRLDLWGQGTLVTVSS VL: DIQMTQSPSSLSASVGDRVTITCQSIKSVYNNRLGWYQQKPGKAPKLLIYETSILTSGVPSRFSGSGSGTDFTLTISSLQPEDFATYYCAGGFDRSGDTTFGQGTKVEIK | – | 0.626 nM and 0.41 nM | –
8 | E104.v2 IgG1 hinge variant G1-H (antibody, V domains shown) VH: EVQLVESGPGLVKPSETLSLTCTVSRFSLIGYAITWIRQPPGKGLEWIGGISSAATTFYSSWAKSRVTISRDTSKNQVSLKLSSVTAADTAVYYCARDPRGYGAALDRLDLWGQGTLVTVSS VL: DIQMTQSPSSLSASVGDRVTITCQSIKSVYNNRLGWYQQKPGKAPKLLIYETSILTSGVPSRFSGSGSGTDFTLTISSLQPEDFATYYCAGGFDRSGDTTFGQGTKVEIK | 0.68 | – | –
9 | E104.v2 IgG1 hinge variant G1-KTH (antibody, V domains shown) VH: EVQLVESGPGLVKPSETLSLTCTVSRFSLIGYAITWIRQPPGKGLEWIGGISSAATTFYSSWAKSRVTISRDTSKNQVSLKLSSVTAADTAVYYCARDPRGYGAALDRLDLWGQGTLVTVSS VL: DIQMTQSPSSLSASVGDRVTITCQSIKSVYNNRLGWYQQKPGKAPKLLIYETSILTSGVPSRFSGSGSGTDFTLTISSLQPEDFATYYCAGGFDRSGDTTFGQGTKVEIK | 0.522 | – | –
10 | E104.v2 Fab (Fab, V domains shown, as the heavy chain of m6 (PDB 6VVU, Fab heavy chain) with the two framework changes V71R and F78V (Kabat numbering); as the light chain of m6 (PDB 6VVU, Fab light chain); No structure of v2 was obtained; it differs from v1 only at heavy chain framework positions 71 and 78; also called Fab E104.v2; source: E. coli, purified (Protein G, SP Sepharose, S75 SEC)) VH: EVQLVESGPGLVKPSETLSLTCTVSRFSLIGYAITWIRQPPGKGLEWIGGISSAATTFYSSWAKSRVTISRDTSKNQVSLKLSSVTAADTAVYYCARDPRGYGAALDRLDLWGQGTLVTVSS VL: DIQMTQSPSSLSASVGDRVTITCQSIKSVYNNRLGWYQQKPGKAPKLLIYETSILTSGVPSRFSGSGSGTDFTLTISSLQPEDFATYYCAGGFDRSGDTTFGQGTKVEIK | – | – | stoichiometry N [3]: 2 Fab per disulfide-linked dimer
11 | E104.v2 IgG1 hinge variant G1.G5 (antibody, V domains shown, humanized E104.v2 VH: as the VH of Sm2 (E104.v1, PDB 6VVU heavy chain) with V71R and F78V (Kabat numbering); human IgG1 heavy chain constant region, the CH1 domain up to the upper hinge; engineered upper hinge: DKTHT of the human IgG1 upper hinge replaced by five glycines; human IgG1 heavy chain constant region after the upper hinge (core and lower hinge, CH2, CH3); IgG1 with a flexible upper …) VH: EVQLVESGPGLVKPSETLSLTCTVSRFSLIGYAITWIRQPPGKGLEWIGGISSAATTFYSSWAKSRVTISRDTSKNQVSLKLSSVTAADTAVYYCARDPRGYGAALDRLDLWGQGTLVTVSS VL: DIQMTQSPSSLSASVGDRVTITCQSIKSVYNNRLGWYQQKPGKAPKLLIYETSILTSGVPSRFSGSGSGTDFTLTISSLQPEDFATYYCAGGFDRSGDTTFGQGTKVEIK | – | 0.643 nM and 0.493 nM | –
12 | E104.v2 IgG1 hinge variant G1-TH (antibody, V domains shown, humanized E104.v2 VH: as the VH of Sm2 (E104.v1, PDB 6VVU heavy chain) with V71R and F78V (Kabat numbering); human IgG1 heavy chain constant region, the CH1 domain up to the upper hinge; human IgG1 heavy chain constant region after the upper hinge (core and lower hinge, CH2, CH3); IgG1 with shortened upper hinge; copies: 2 + 2) VH: EVQLVESGPGLVKPSETLSLTCTVSRFSLIGYAITWIRQPPGKGLEWIGGISSAATTFYSSWAKSRVTISRDTSKNQVSLKLSSVTAADTAVYYCARDPRGYGAALDRLDLWGQGTLVTVSS VL: DIQMTQSPSSLSASVGDRVTITCQSIKSVYNNRLGWYQQKPGKAPKLLIYETSILTSGVPSRFSGSGSGTDFTLTISSLQPEDFATYYCAGGFDRSGDTTFGQGTKVEIK | – | 0.56 nM and 0.471 nM | –
13 | wild-type (WT) tetrameric human βI-tryptase (enzyme, mature human βI-tryptase, Ile31-Pro275 of Uniprot Q15661 (Ile16-Pro246 in chymotrypsinogen numbering); N-terminus IVGG after enterokinase cleavage; Homotetramer; residues in the results are in chymotrypsinogen numbering; also called βI-tryptase tetramer; tetrameric β-tryptase; source: Trichoplusia ni cells (baculovirus), secreted, purified (Ni-NTA, S200 SEC); zymogen cleaved with enterokinase in …) not shown | – | – | stoichiometry N [4]: 4
